Assay results: paper PMC10786891, “Massively parallel profiling of RNA-targeting CRISPR-Cas13d”

T1: EsCas13d, nuclease-dead (Eubacterium siraeum, UniProt B0MS50, R295A;H300A;R849A;H854A)
T1 sequence: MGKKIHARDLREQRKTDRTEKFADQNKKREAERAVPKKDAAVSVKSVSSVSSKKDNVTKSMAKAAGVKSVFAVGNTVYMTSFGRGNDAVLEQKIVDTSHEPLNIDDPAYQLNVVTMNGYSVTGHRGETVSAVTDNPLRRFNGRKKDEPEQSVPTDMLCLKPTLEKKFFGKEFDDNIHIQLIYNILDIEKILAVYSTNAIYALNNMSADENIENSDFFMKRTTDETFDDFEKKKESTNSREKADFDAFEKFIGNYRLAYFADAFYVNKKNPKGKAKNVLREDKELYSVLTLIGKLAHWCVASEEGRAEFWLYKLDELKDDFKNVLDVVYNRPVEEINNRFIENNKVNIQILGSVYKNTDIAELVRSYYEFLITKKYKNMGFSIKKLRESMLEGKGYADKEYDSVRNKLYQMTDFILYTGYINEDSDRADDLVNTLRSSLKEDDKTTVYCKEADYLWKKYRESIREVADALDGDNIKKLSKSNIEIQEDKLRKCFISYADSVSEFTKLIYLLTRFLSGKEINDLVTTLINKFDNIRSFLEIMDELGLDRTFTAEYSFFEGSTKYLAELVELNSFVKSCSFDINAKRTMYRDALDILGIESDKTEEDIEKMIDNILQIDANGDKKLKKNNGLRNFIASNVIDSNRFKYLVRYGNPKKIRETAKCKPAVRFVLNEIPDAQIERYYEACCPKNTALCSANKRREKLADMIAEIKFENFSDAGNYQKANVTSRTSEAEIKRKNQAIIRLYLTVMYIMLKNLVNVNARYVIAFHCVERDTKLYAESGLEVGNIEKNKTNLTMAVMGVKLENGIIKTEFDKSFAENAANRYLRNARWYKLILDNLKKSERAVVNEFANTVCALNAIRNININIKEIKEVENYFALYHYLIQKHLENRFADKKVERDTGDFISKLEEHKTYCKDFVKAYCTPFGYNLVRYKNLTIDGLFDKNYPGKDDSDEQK

B1: target 1 del13,del17 (mixed)
RNA 1: CACCCGUGCAAAAAUGCAGGGGUCUAAAACUGAGCGGAUAACCUCUCUAUGG
RNA 2: GGGAAUGGAUCCACAUCUACGAAUUCGUACCAUAAGAGUUAUCCGCUCACCGAGAUCGGAAGAGCACACGU
B2: target 1 A9G,A16C (mixed)
RNA 1: CACCCGUGCAAAAAUGCAGGGGUCUAAAACUGAGCGGAUAACCUCUCUAUGG
RNA 2: GGGAAUGGAUCCACAUCUACGAAUUCGUACCAUAGCGAGGUUGUCCGCUCACCGAGAUCGGAAGAGCACACGU
B3: target 1 insU 3' of 18,insG 3' of 14 (mixed)
RNA 1: CACCCGUGCAAAAAUGCAGGGGUCUAAAACUGAGCGGAUAACCUCUCUAUGG
RNA 2: GGGAAUGGAUCCACAUCUACGAAUUCGUACCAUAUGAGAGGGUUAUCCGCUCACCGAGAUCGGAAGAGCACACGU
B4: target 1 U11G,C21A (mixed)
RNA 1: CACCCGUGCAAAAAUGCAGGGGUCUAAAACUGAGCGGAUAACCUCUCUAUGG
RNA 2: GGGAAUGGAUCCACAUCUACGAAUUCGUACAAUAGAGAGGGUAUCCGCUCACCGAGAUCGGAAGAGCACACGU
B5: target 1 insU 3' of 20,insU 3' of 9 (mixed)
RNA 1: CACCCGUGCAAAAAUGCAGGGGUCUAAAACUGAGCGGAUAACCUCUCUAUGG
RNA 2: GGGAAUGGAUCCACAUCUACGAAUUCGUACCAUUAGAGAGGUUAUUCCGCUCACCGAGAUCGGAAGAGCACACGU
B6: target 1 insG 3' of 18,insG 3' of 16 (mixed)
RNA 1: CACCCGUGCAAAAAUGCAGGGGUCUAAAACUGAGCGGAUAACCUCUCUAUGG
RNA 2: GGGAAUGGAUCCACAUCUACGAAUUCGUACCAUAGGAGGAGGUUAUCCGCUCACCGAGAUCGGAAGAGCACACGU
B7: target 1 insU 3' of 12,insC 3' of 10 (mixed)
RNA 1: CACCCGUGCAAAAAUGCAGGGGUCUAAAACUGAGCGGAUAACCUCUCUAUGG
RNA 2: GGGAAUGGAUCCACAUCUACGAAUUCGUACCAUAGAGAGGUUUCAUCCGCUCACCGAGAUCGGAAGAGCACACGU
B8: target 1 G5C,A9G (mixed)
RNA 1: CACCCGUGCAAAAAUGCAGGGGUCUAAAACUGAGCGGAUAACCUCUCUAUGG
RNA 2: GGGAAUGGAUCCACAUCUACGAAUUCGUACCAUAGAGAGGUUGUCCCCUCACCGAGAUCGGAAGAGCACACGU
B9: target 1 insU 3' of 18,insC 3' of 8 (mixed)
RNA 1: CACCCGUGCAAAAAUGCAGGGGUCUAAAACUGAGCGGAUAACCUCUCUAUGG
RNA 2: GGGAAUGGAUCCACAUCUACGAAUUCGUACCAUAUGAGAGGUUAUCCCGCUCACCGAGAUCGGAAGAGCACACGU
B10: target 1 insU 3' of 6,insU 3' of 6 (mixed)
RNA 1: CACCCGUGCAAAAAUGCAGGGGUCUAAAACUGAGCGGAUAACCUCUCUAUGG
RNA 2: GGGAAUGGAUCCACAUCUACGAAUUCGUACCAUAGAGAGGUUAUCCUUGCUCACCGAGAUCGGAAGAGCACACGU
B11: target 1 insG 3' of 7,insG 3' of 7 (mixed)
RNA 1: CACCCGUGCAAAAAUGCAGGGGUCUAAAACUGAGCGGAUAACCUCUCUAUGG
RNA 2: GGGAAUGGAUCCACAUCUACGAAUUCGUACCAUAGAGAGGUUAUCGGCGCUCACCGAGAUCGGAAGAGCACACGU
B12: target 1 insA 3' of 17,insA 3' of 11 (mixed)
RNA 1: CACCCGUGCAAAAAUGCAGGGGUCUAAAACUGAGCGGAUAACCUCUCUAUGG
RNA 2: GGGAAUGGAUCCACAUCUACGAAUUCGUACCAUAGAAGAGGUAUAUCCGCUCACCGAGAUCGGAAGAGCACACGU
B13: target 1 C7G,A20U (mixed)
RNA 1: CACCCGUGCAAAAAUGCAGGGGUCUAAAACUGAGCGGAUAACCUCUCUAUGG
RNA 2: GGGAAUGGAUCCACAUCUACGAAUUCGUACCUUAGAGAGGUUAUGCGCUCACCGAGAUCGGAAGAGCACACGU
B14: target 1 C4U,A9U (mixed)
RNA 1: CACCCGUGCAAAAAUGCAGGGGUCUAAAACUGAGCGGAUAACCUCUCUAUGG
RNA 2: GGGAAUGGAUCCACAUCUACGAAUUCGUACCAUAGAGAGGUUUUCCGUUCACCGAGAUCGGAAGAGCACACGU
B15: target 1 insU 3' of 14,insU 3' of 6 (mixed)
RNA 1: CACCCGUGCAAAAAUGCAGGGGUCUAAAACUGAGCGGAUAACCUCUCUAUGG
RNA 2: GGGAAUGGAUCCACAUCUACGAAUUCGUACCAUAGAGAUGGUUAUCCUGCUCACCGAGAUCGGAAGAGCACACGU
B16: target 1 A9C,G12A (mixed)
RNA 1: CACCCGUGCAAAAAUGCAGGGGUCUAAAACUGAGCGGAUAACCUCUCUAUGG
RNA 2: GGGAAUGGAUCCACAUCUACGAAUUCGUACCAUAGAGAGAUUCUCCGCUCACCGAGAUCGGAAGAGCACACGU
B17: target 1 C7A,U11C (mixed)
RNA 1: CACCCGUGCAAAAAUGCAGGGGUCUAAAACUGAGCGGAUAACCUCUCUAUGG
RNA 2: GGGAAUGGAUCCACAUCUACGAAUUCGUACCAUAGAGAGGCUAUACGCUCACCGAGAUCGGAAGAGCACACGU
B18: target 1 C4A,C7U (mixed)
RNA 1: CACCCGUGCAAAAAUGCAGGGGUCUAAAACUGAGCGGAUAACCUCUCUAUGG
RNA 2: GGGAAUGGAUCCACAUCUACGAAUUCGUACCAUAGAGAGGUUAUUCGAUCACCGAGAUCGGAAGAGCACACGU
B19: target 1 insC 3' of 15,insU 3' of 9 (mixed)
RNA 1: CACCCGUGCAAAAAUGCAGGGGUCUAAAACUGAGCGGAUAACCUCUCUAUGG
RNA 2: GGGAAUGGAUCCACAUCUACGAAUUCGUACCAUAGAGCAGGUUAUUCCGCUCACCGAGAUCGGAAGAGCACACGU
B20: target 1 complement block 5-13 (mixed)
RNA 1: CACCCGUGCAAAAAUGCAGGGGUCUAAAACUGAGCGGAUAACCUCUCUAUGG
RNA 2: GGGAAUGGAUCCACAUCUACGAAUUCGUACCAUAGAGACCAAUAGGCCUCACCGAGAUCGGAAGAGCACACGU
B21: target 1 insU 3' of 7,insU 3' of 5 (mixed)
RNA 1: CACCCGUGCAAAAAUGCAGGGGUCUAAAACUGAGCGGAUAACCUCUCUAUGG
RNA 2: GGGAAUGGAUCCACAUCUACGAAUUCGUACCAUAGAGAGGUUAUCUCGUCUCACCGAGAUCGGAAGAGCACACGU
B22: target 1 insC 3' of 17,insG 3' of 2 (mixed)
RNA 1: CACCCGUGCAAAAAUGCAGGGGUCUAAAACUGAGCGGAUAACCUCUCUAUGG
RNA 2: GGGAAUGGAUCCACAUCUACGAAUUCGUACCAUAGCAGAGGUUAUCCGCUCGACCGAGAUCGGAAGAGCACACGU
B23: target 1 insU 3' of 7,insC 3' of 1 (mixed)
RNA 1: CACCCGUGCAAAAAUGCAGGGGUCUAAAACUGAGCGGAUAACCUCUCUAUGG
RNA 2: GGGAAUGGAUCCACAUCUACGAAUUCGUACCAUAGAGAGGUUAUCUCGCUCACCCGAGAUCGGAAGAGCACACGU
B24: target 1 C7G,A20C (mixed)
RNA 1: CACCCGUGCAAAAAUGCAGGGGUCUAAAACUGAGCGGAUAACCUCUCUAUGG
RNA 2: GGGAAUGGAUCCACAUCUACGAAUUCGUACCCUAGAGAGGUUAUGCGCUCACCGAGAUCGGAAGAGCACACGU
B25: target 1 G13U,C22A (mixed)
RNA 1: CACCCGUGCAAAAAUGCAGGGGUCUAAAACUGAGCGGAUAACCUCUCUAUGG
RNA 2: GGGAAUGGAUCCACAUCUACGAAUUCGUAACAUAGAGAUGUUAUCCGCUCACCGAGAUCGGAAGAGCACACGU
B26: target 1 insA 3' of 10,insG 3' of 2 (mixed)
RNA 1: CACCCGUGCAAAAAUGCAGGGGUCUAAAACUGAGCGGAUAACCUCUCUAUGG
RNA 2: GGGAAUGGAUCCACAUCUACGAAUUCGUACCAUAGAGAGGUUAAUCCGCUCGACCGAGAUCGGAAGAGCACACGU
B27: target 1 U8C,A14G (mixed)
RNA 1: CACCCGUGCAAAAAUGCAGGGGUCUAAAACUGAGCGGAUAACCUCUCUAUGG
RNA 2: GGGAAUGGAUCCACAUCUACGAAUUCGUACCAUAGAGGGGUUACCCGCUCACCGAGAUCGGAAGAGCACACGU
B28: target 1 insU 3' of 13,insC 3' of 13 (mixed)
RNA 1: CACCCGUGCAAAAAUGCAGGGGUCUAAAACUGAGCGGAUAACCUCUCUAUGG
RNA 2: GGGAAUGGAUCCACAUCUACGAAUUCGUACCAUAGAGAGUCGUUAUCCGCUCACCGAGAUCGGAAGAGCACACGU

Target: T1, EsCas13d, nuclease-dead
Assay: crRNA (strand 1, pre-loaded); Mg2+; 40 mM Tris-HCl pH 7.5, 150 mM NaCl, 6 mM MgCl2, 1 mM DTT, 0.1% Tween-20, 0.2 mg/ml BSA; 25 C; 10 min per concentration, then washed
Conditions: tags: His6-TwinStrep-SUMO cleaved; N-terminal SNAP kept (SNAP-Surface 488); label: 3' end held by stalled T7 RNA polymerase

In order of rising Kd:
1. B18  3.39 ± 0.26 nM
2. B17  8.4 ± 0.4 nM
3. B28  8.6 ± 0.5 nM
4. B8  8.9 ± 0.5 nM
5. B11  9.8 ± 0.5 nM
6. B10  11.7 ± 0.7 nM
7. B26  12.4 ± 0.7 nM
8. B23  13.9 ± 0.6 nM
9. B19  14.4 ± 0.8 nM
10. B21  14.5 ± 0.5 nM
11. B16  16.6 ± 1.9 nM
12. B5  20.5 ± 1.2 nM
13. B12  24.5 ± 1.7 nM
14. B27  25.7 ± 2 nM
15. B2  36.4 ± 1.8 nM
16. B22  ~38 nM
17. B7  45 ± 6 nM
18. B3  46 ± 3 nM
19. B13  47 ± 6 nM
20. B14  50 ± 16 nM
21. B9  53 ± 4 nM
22. B1  55 ± 20 nM
23. B6  55 ± 9 nM
24. B15  61 ± 8 nM
25. B25  63 ± 27 nM
26. B4  64 ± 12 nM
27. B20  ~80 nM
28. B24  86 ± 30 nM
